Test results reported in patent US20170340747A1, “PROCESS FOR PRODUCING IRON (III) CASEIN N-ACETYL-ASPARTYLATED COMPLEXES AND USE THEREOF IN PHARMACEUTICAL COMPOSITIONS” (priority 2014, published 2017).

Tests used:
[1] = Solubility of the dried iron (III) casein N-acetyl-L-aspartylated complex; assay type: physicochemical
Method: (§1) The moist pure product obtained in the previous stage is dried under vacuum, at a temperature increasing from 60° C. to 70° C., for an overall period of 24 hours. After the desiccation process, 6.5 g of pure iron (III) casein N-acetyl-L-aspartylated complex are obtained, with a water content <5 wt % (Karl Fisher), having the following chemical and physicochemical characteristics:
as §1, with “6.6” for “6.5”, “casein:” for “casein”, “content<5” for “content <5”
as §1, with “6.4” for “6.5”, “content<5” for “content <5”, “characteristics: […]” for “characteristics:”

[2] = system: patients with iron deficiency anaemia; conditions: cited from earlier work
rats = conditions: complex containing 5% iron; cited from earlier work
dogs = conditions: complex containing 5% iron; cited from earlier work

ferro-N-acetyl-L-aspartylated casein
Solubility at alkaline pH values [1]: completely soluble at alkaline pH values

iron (III) casein N-acetyl-L-aspartylated complex [Example 3]
Solubility [1]: Soluble in NaOH pH = 8

iron (III) casein: N-acetyl-L-aspartylated complex [Example 2]
Solubility [1]: Soluble in NaOH pH = 8

iron-acetyl-aspartylated casein [Fe-ASP]
Changes in clinical and haematological profiles ([2]; controlled clinical trials, compared with iron protein succinylate (IPS)): virtually identical to those seen with iron protein succinylate (IPS)
Safety ([2]; human, in vivo): No safety considerations were raised
Clinical and haematological parameters after treatment ([2]; open clinical trials, all categories of patients with iron deficiency anaemia): highly significant improvements

iron-protein succinylate [iron succinyl casein complex]
Gastrointestinal tolerability (rats): better gastrointestinal tolerability
Gastrointestinal tolerability (dogs): better gastrointestinal tolerability
